Each block holds one binder with its values, some of them ahead of it.
Columns and labels:
GST-hMSTN 121-220aa = target: T1, GST-hMSTN 121-220aa (human, UniProt A1C2U3 121-220 (Pongo pygmaeus entry)); test: Western blot on GST tagged fragments
T1 construct: As GST-hMSTN 1-100aa; also called seventh fragment; not shown: GST tag from the pGEX4.1 vector
T1 sequence: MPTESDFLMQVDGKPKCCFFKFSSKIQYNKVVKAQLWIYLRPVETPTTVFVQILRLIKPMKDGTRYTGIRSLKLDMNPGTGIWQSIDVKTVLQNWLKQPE
From the text: (§1) Fragments of the N-terminal propeptide coding region of human latent myostatin were cloned into a pGEX4.1 vector so as to produce GST tagged propeptide fragments of 100 amino acid each, with 80 amino acid overlap (FIG. 22A). Protein expression was induced in transformed BL21 competent cells with Overnight Express Autoinduction System (Merck Millipore) and protein was extracted using the BUGBUSTER® protein extraction reagent (Novagen).

GST-hMSTN 141-241aa = target: T2, GST-hMSTN 141-241aa (human, UniProt A1C2U3 141-241 (Pongo pygmaeus entry)); test: Western blot on GST tagged fragments
T2 construct: As GST-hMSTN 1-100aa; also called eighth fragment; not shown: GST tag from the pGEX4.1 vector
T2 sequence: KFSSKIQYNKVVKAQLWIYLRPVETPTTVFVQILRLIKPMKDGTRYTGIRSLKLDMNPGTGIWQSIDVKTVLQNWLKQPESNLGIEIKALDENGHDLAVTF
From the text: as §1

GST-hMSTN 81-180aa = target: T3, GST-hMSTN 81-180aa (human, UniProt A1C2U3 81-180 (Pongo pygmaeus entry)); test: Western blot on GST tagged fragments
T3 construct: As GST-hMSTN 1-100aa; also called fifth fragment; not shown: GST tag from the pGEX4.1 vector
T3 sequence: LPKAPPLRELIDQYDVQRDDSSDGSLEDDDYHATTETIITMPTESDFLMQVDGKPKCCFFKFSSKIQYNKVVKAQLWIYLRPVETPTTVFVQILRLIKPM
From the text: as §1

GST-hMSTN 61-160aa = target: T4, GST-hMSTN 61-160aa (human, UniProt O14793 61-160); test: Western blot on GST tagged fragments
T4 construct: As GST-hMSTN 1-100aa; also called fourth fragment; not shown: GST tag from the pGEX4.1 vector
T4 sequence: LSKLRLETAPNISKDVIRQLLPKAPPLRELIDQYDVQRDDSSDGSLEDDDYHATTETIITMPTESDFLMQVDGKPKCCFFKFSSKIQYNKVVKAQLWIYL
From the text: as §1

GST-hMSTN 101-200aa = target: T5, GST-hMSTN 101-200aa (human, UniProt A1C2U3 101-200 (Pongo pygmaeus entry)); test: Western blot on GST tagged fragments
T5 construct: As GST-hMSTN 1-100aa; also called sixth fragment; not shown: GST tag from the pGEX4.1 vector
T5 sequence: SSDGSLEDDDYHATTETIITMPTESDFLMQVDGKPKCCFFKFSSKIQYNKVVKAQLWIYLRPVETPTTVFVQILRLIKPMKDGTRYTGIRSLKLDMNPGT
From the text: as §1

Human latent myostatin [1] = target: T6, Human latent myostatin (human, UniProt O14793 25-266; O14793 267-375); test: SPR (BIACORE), additional dissociation phase at pH5.8 after dissociation at pH7.4
T6 construct: Biotinylated in the ELISAs; also called human myostatin latent form
T6 sequence 1: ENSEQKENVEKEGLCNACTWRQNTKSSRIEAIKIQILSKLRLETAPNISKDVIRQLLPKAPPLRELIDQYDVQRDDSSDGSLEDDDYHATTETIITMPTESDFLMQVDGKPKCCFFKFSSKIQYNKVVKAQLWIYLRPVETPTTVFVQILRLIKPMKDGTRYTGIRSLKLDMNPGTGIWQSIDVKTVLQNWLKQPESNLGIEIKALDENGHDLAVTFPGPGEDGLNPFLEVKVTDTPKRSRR
T6 sequence 2: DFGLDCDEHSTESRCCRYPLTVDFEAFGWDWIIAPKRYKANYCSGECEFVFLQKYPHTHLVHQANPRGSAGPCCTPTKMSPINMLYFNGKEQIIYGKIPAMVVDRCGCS
Description: (§2) Each amino acid in the CDRs was individually mutated to histidine using In-Fusion HD Cloning Kit (Clontech Inc, or Takara Bio company) according to the manufacturer's instructions. […] All histidine-substituted variants were evaluated by a modified BIACORE® assay as compared to that described above. Briefly, an additional dissociation phase at pH5.8 was integrated into the BIACORE® assay immediately after the dissociation phase at pH7.4. This is to assess the pH-dependent dissociation between antibody (Ab) and antigen (Ag) from the complexes formed at pH7.4 as opposed to the corresponding dissociation at pH5.8. The dissociation rate at pH5.8 buffer was determined by processing and fitting data using the Scrubber 2.0 (BioLogic Software) curve fitting software.
(§3) Antibodies with a combination of these mutations in the CDRs were then generated.

Human latent myostatin [2] = target: T6, Human latent myostatin; test: SPR (BIACORE), additional dissociation phase at pH5.8 after dissociation at pH7.4, Scrubber 2.0 fit
Description: as §2, §3

[3] = target: T7, human FcγRIIIaV extracellular domain with C-terminal His-tag (human, UniProt P08637 17-208); test: SPR (BIACORE T200/4000), antibody captured, FcγR as analyte, 25 C
T7 construct: also called FcgRIIIaV; not shown: His-tag added to the C-terminus

[4] = target: T8, cyno FcγRIIIaS extracellular domain with C-terminal His-tag (cynomolgus monkey, UniProt A3RFZ7 21-206 (rhesus entry)); test: as above
T8 construct: also called FcgRIIIaS; not shown: His-tag added to the C-terminus
T8 sequence (A3RFZ7 21-206): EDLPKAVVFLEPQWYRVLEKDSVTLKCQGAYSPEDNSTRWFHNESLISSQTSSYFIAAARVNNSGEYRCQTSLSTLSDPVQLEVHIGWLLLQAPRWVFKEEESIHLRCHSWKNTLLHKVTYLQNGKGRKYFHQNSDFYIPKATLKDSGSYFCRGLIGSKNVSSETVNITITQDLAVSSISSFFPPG

T7 sequence (P08637 17-208 F176V): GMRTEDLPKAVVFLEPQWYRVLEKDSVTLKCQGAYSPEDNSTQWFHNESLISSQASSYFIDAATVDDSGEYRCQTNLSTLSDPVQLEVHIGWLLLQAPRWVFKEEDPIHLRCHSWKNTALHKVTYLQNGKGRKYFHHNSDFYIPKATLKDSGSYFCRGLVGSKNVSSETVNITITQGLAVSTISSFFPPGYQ

- binding result (GST-hMSTN 121-220aa): no binding
- binding result (GST-hMSTN 141-241aa): no binding
- binding result (GST-hMSTN 81-180aa): no binding
- binding result (GST-hMSTN 61-160aa): no binding
- binding result (GST-hMSTN 101-200aa): no binding
B1: MST1538 (antibody, human IgG1, kappa, V domains shown)
VH: QSLEESGGGLVKPGGTLTLTCKASGIDFSSYYYMCWVRQAPGKGLEWIACIYAGISGSTYYASWAKGRFTISKTSSTTVTLQMTSLTAADTATYFCARDPYHFDYGSLWGPGTLVTVSS
VL: ALVMTQTPASVSAAVGGTVTINCQASQSVYGGNELSWYQQEPGQPPKLLIYSASKLASGVPSRFKGSGSGTQFTLTISGVQCDDAAAYYCAGYRTYSDDDNAFGGGTKVEIKR

- fold faster dissociation rate at pH5.8 than the parental antibody Ab001 (Human latent myostatin [1]): > 200 fold
- koff (Human latent myostatin [2]): 0.00609 s⁻¹
B2: Ab002 (M103205H001 / M103202L000) (antibody, human IgG1, kappa, V domains shown)
VH: QVTLKESGPVLVKPTETLTLTCTVSGIDLSHYDISWVRQAPGKGLEWVGIISYAGSTYYASWAKGRLTISKDTSKNQVVLTMTNMDPVDTATYYCARGVPAYSTGGDLWGQGTLVTVSS
VL: DIVMTQSPATLSLSPGERATLSCQSSQSVYDNNWLSWFQQKPGQPPKLLIYWASTLASGVPSRFSGSGSGTDFTLTISSLQPEDAATYYCAGGYGGGLYAFGQGTKVEIKR
notes: Histidine-substituted variant of MS1032LO00-SG1

- binding result (GST-hMSTN 121-220aa): no binding
- binding result (GST-hMSTN 141-241aa): no binding
- binding result (GST-hMSTN 81-180aa): no binding
- binding result (GST-hMSTN 61-160aa): no binding
- binding result (GST-hMSTN 101-200aa): no binding
B3: MST1572 (antibody, human IgG1, kappa, V domains shown)
VH: QSVEESGGRLVTPGTPLTLTCTVSGFSLSSYAMSWVRQAPGKGLEWIGIIYGVGSTYYASWAKGRFTISKTSTTVDLKIASPTTEDTATYFCARDDYGWGYTNLWGPGTLVTVSS
VL: QVLTQTPSSVSAAVGGTVTINCQSSQSVYNNNYLAWFQQKPGQPPKLLIYDASKLASGVPSRFKGSGSGTQFTLTISGVQCDDAATYYCQGSYYSSGWYRAFGGGTKVEIKR

- binding result [3]: binds
- binding result [4]: binds
B4: M103205H795-MY009/M103202L889-SK1 (antibody, human IgG1, kappa)
heavy: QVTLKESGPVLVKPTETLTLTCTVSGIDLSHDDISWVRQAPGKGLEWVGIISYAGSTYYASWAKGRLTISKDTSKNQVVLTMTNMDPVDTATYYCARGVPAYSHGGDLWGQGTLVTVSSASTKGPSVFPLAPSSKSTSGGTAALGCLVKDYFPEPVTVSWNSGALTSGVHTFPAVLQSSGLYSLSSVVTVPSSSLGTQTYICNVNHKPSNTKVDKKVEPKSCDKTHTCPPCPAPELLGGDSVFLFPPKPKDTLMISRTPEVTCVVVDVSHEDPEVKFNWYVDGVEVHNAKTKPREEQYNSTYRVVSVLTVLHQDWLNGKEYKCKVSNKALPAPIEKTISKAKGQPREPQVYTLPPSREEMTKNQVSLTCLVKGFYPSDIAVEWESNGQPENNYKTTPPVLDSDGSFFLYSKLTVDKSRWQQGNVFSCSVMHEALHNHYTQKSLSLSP
light: DIVMTQSPATLSLSPGERATLSCTSSQSVYHANWLSWFQQKPGQPPKLLIYWASTLAYGVPSRFSGSGSGTDFTLTISSLQPEDAATYYCAGGYGGGRYAFGQGTKVEIKRTVAAPSVFIFPPSDEQLKSGTASVVCLLNNFYPREAKVQWKVDNALQSGNSQESVTEQDSKDSTYSLSSTLTLSKADYEKHKVYACEVTHQGLSSPVTKSFNRGEC
notes: SG1 with P238D (EU numbering); also called MS1032LO06-MY009; MS1032LO006-MY009
